These results are taken from PMC12820563, “FoxP3 forms a head-to-head dimer in vivo and stabilizes its multimerization on adjacent microsatellites”.

The target in data set [1] is T1, MBP-FoxP3dN (Mus musculus, UniProt Q99JB6 188-423).
T1 sequence: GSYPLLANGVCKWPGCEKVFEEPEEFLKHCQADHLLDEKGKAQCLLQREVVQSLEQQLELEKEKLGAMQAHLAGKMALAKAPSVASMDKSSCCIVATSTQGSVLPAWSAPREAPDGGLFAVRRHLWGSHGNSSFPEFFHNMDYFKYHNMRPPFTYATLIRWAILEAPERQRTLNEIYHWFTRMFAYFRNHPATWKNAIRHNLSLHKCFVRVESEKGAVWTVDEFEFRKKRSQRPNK
In words: pull-down; comparable to IR-FKHM; Pull-down: 20 mM Tris-HCl pH 7.5, 100 mM NaCl, 1.5 mM MgCl2, room temperature, 0.4 uM MBP protein, 0.1 uM DNA (NFAT 0.2 uM); EMSA: 20 mM HEPES pH 7.5, 150 mM NaCl, 1.5 mM MgCl2, 2 mM DTT, 4 C, 0.2 uM DNA (RBR-FKH 0.8 uM, NFAT 0.4 uM). As to conditions: protein: recombinant; tags: His6-MBP; chain copies: 2; blunt. Put shortly:
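0.4 µM MBP-tagged mouse FoxP3 fragment (plus 0.2 µM NFAT fragment where included) was mixed with 0.1 µM duplex DNA in Tris buffer with NaCl and MgCl2 at room temperature. Complexes were captured on amylose resin, and proteinase K-released DNA was run on 10% TBE gels stained with SYBR Gold. In a gel-shift arm, 0.2 µM DNA and protein were held 10 min at 4 °C in HEPES buffer, then run on native gels. Binding was judged qualitatively from gels.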
(A gel shift assay detects complexes by their altered migration in electrophoresis.)

The target in data set [2] is T2, FoxP3RBR-FoxP1FKH;NFAT1 DBD (Mus musculus;Mus musculus?, UniProt Q99JB6;Q60591 284-336+P58462:493-579;394-680, internal_change|).
T2 sequence 1: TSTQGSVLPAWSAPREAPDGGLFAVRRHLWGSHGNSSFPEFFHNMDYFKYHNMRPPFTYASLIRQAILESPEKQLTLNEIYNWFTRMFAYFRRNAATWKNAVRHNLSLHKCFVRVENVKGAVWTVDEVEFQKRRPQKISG
T2 sequence 2: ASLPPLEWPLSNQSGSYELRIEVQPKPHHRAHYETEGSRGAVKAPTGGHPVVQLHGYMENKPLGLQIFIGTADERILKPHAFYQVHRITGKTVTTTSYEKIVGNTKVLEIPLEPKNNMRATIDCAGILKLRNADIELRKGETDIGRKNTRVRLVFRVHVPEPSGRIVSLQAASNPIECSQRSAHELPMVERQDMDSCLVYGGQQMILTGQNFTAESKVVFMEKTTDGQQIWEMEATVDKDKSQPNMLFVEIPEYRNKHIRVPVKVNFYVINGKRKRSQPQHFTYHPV
In words: EMSA; dimer; Pull-down: 20 mM Tris-HCl pH 7.5, 100 mM NaCl, 1.5 mM MgCl2, room temperature, 0.4 uM MBP protein, 0.1 uM DNA (NFAT 0.2 uM); EMSA: 20 mM HEPES pH 7.5, 150 mM NaCl, 1.5 mM MgCl2, 2 mM DTT, 4 C, 0.2 uM DNA (RBR-FKH 0.8 uM, NFAT 0.4 uM). The following applies: protein: recombinant;recombinant; tags: none (His6-NusA cleaved);none (His6-NusA cleaved); chain copies: 2;1; blunt.

The next data set deals with T3, FoxP3 RBR-FKH;NFAT1 DBD (Mus musculus;Mus musculus?, UniProt Q99JB6;Q60591 284-423;394-680, |).
T3 sequence 1: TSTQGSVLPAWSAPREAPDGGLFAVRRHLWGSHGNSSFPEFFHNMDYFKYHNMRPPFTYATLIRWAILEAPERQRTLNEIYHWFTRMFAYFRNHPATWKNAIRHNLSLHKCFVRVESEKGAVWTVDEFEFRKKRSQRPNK
T3 sequence 2: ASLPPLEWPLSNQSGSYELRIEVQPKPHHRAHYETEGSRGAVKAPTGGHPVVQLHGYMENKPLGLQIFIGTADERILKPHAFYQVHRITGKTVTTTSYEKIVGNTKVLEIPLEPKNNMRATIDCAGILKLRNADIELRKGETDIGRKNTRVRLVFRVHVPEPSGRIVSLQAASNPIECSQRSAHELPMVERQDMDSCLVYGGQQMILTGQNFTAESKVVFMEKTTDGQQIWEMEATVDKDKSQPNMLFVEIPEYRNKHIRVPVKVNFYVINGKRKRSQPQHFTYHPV
The data set is described as above. As to conditions: protein: recombinant;recombinant; tags: none (His6-NusA cleaved);none (His6-NusA cleaved); copies: 1;1; blunt.

The target of the next data set is T4, FoxP1 RBR-FKH;NFAT1 DBD (Mus musculus;Mus musculus?, UniProt P58462;Q60591 427-579;394-680, |).
T4 sequence 1: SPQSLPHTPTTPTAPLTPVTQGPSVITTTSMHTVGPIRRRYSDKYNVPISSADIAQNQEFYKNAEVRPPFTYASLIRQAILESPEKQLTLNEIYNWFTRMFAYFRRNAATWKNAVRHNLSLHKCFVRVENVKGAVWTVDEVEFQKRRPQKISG
T4 sequence 2: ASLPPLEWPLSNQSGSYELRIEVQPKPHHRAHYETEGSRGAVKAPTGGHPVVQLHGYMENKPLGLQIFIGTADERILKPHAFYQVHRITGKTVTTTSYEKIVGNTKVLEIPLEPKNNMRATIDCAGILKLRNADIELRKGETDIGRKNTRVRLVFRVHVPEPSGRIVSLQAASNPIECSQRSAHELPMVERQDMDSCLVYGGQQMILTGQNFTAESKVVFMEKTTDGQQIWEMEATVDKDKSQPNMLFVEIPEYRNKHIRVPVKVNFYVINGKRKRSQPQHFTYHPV
As to the kind of experiment: EMSA; monomer; Pull-down: 20 mM Tris-HCl pH 7.5, 100 mM NaCl, 1.5 mM MgCl2, room temperature, 0.4 uM MBP protein, 0.1 uM DNA (NFAT 0.2 uM); EMSA: 20 mM HEPES pH 7.5, 150 mM NaCl, 1.5 mM MgCl2, 2 mM DTT, 4 C, 0.2 uM DNA (RBR-FKH 0.8 uM, NFAT 0.4 uM). As to conditions: protein: recombinant;recombinant; tags: none (His6-NusA cleaved);none (His6-NusA cleaved); copies: 1;1; blunt.

Data set [3] concerns the target T5, FoxP1RBR-FoxP3FKH;NFAT1 DBD (Mus musculus;Mus musculus?, UniProt P58462;Q60591 427-492+Q99JB6:337-423;394-680, internal_change|).
T5 sequence 1: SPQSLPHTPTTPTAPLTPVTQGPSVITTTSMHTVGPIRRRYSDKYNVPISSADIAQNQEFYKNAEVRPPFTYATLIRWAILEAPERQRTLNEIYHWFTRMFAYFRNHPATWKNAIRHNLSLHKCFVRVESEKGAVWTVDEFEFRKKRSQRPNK
T5 sequence 2: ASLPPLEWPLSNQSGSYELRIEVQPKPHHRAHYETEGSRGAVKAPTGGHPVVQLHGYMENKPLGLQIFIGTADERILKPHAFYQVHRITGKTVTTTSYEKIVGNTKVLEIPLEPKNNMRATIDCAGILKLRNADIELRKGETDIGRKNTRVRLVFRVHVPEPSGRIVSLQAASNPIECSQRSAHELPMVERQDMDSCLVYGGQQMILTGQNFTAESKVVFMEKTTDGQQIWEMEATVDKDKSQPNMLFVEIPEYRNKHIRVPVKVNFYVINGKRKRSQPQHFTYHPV
Described as above. As to conditions: protein: recombinant;recombinant; tags: none (His6-NusA cleaved);none (His6-NusA cleaved); copies: 1;1; blunt.

The target in data set [4] is T6, MBP-FoxP3dN;NFAT1 DBD (Mus musculus;Mus musculus?, UniProt Q99JB6;Q60591 188-423;394-680, |).
T6 sequence 1: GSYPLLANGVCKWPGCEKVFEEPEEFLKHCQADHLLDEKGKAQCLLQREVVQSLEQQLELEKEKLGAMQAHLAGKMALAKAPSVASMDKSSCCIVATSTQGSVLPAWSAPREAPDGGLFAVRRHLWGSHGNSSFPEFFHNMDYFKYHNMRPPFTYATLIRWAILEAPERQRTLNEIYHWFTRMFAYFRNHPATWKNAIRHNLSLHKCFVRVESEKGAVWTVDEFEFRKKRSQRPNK
T6 sequence 2: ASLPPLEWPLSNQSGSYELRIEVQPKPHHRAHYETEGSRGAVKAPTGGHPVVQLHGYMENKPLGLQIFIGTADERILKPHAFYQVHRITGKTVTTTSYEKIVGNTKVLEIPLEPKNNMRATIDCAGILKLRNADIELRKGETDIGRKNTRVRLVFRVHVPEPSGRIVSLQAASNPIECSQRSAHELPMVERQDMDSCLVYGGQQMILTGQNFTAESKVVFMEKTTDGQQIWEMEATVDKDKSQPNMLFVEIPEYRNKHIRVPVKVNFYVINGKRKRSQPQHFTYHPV
As to the kind of experiment: pull-down; optimal NFAT cooperativity; Pull-down: 20 mM Tris-HCl pH 7.5, 100 mM NaCl, 1.5 mM MgCl2, room temperature, 0.4 uM MBP protein, 0.1 uM DNA (NFAT 0.2 uM); EMSA: 20 mM HEPES pH 7.5, 150 mM NaCl, 1.5 mM MgCl2, 2 mM DTT, 4 C, 0.2 uM DNA (RBR-FKH 0.8 uM, NFAT 0.4 uM). As to conditions: protein: recombinant;recombinant; tags: His6-MBP;none (His6-NusA cleaved); chain copies: 2;1; blunt.

Data set [5] addresses T1, MBP-FoxP3dN. In words: pull-down; Pull-down: 20 mM Tris-HCl pH 7.5, 100 mM NaCl, 1.5 mM MgCl2, room temperature, 0.4 uM MBP protein, 0.1 uM DNA (NFAT 0.2 uM); EMSA: 20 mM HEPES pH 7.5, 150 mM NaCl, 1.5 mM MgCl2, 2 mM DTT, 4 C, 0.2 uM DNA (RBR-FKH 0.8 uM, NFAT 0.4 uM). The following applies: protein: recombinant; tags: His6-MBP; chain copies: 2; blunt.
The target in data set [6] is T6, MBP-FoxP3dN;NFAT1 DBD. In words: pull-down; NFAT enhances binding; Pull-down: 20 mM Tris-HCl pH 7.5, 100 mM NaCl, 1.5 mM MgCl2, room temperature, 0.4 uM MBP protein, 0.1 uM DNA (NFAT 0.2 uM); EMSA: 20 mM HEPES pH 7.5, 150 mM NaCl, 1.5 mM MgCl2, 2 mM DTT, 4 C, 0.2 uM DNA (RBR-FKH 0.8 uM, NFAT 0.4 uM). As to conditions: protein: recombinant;recombinant; tags: His6-MBP;none (His6-NusA cleaved); chain copies: 2;1; blunt.

B1: DNA 6 (Fig S1F) (dsDNA)
DNA 1: AATTTGCGCATTTCGAGTAAACAAATTT
DNA 2: AAATTTGTTTACTCGAAATGCGCAAATT
Consider B1, for which, in the data set with MBP-FoxP3dN [1], the binding result is “binds”.

B2: DNA 1 (Fig S1F) (dsDNA)
DNA 1: AATTTGCGCATCTCGAGTAAACAAATTT
DNA 2: AAATTTGTTTACTCGAGATGCGCAAATT
On to B2, for which the binding result with MBP-FoxP3dN [1] was “binds”.

B3: DNA 9 (Fig S1F) (dsDNA)
DNA 1: AATTTGTGCATCTCGAGTAAACAAATTT
DNA 2: AAATTTGTTTACTCGAGATGCACAAATT
With B3, the binding result with MBP-FoxP3dN [1] is recorded as “binds”.

B4: DNA 5 (Fig S1F) (dsDNA)
DNA 1: AATTTGTGTTTATCGAGTAAACAAATTT
DNA 2: AAATTTGTTTACTCGATAAACACAAATT
Regarding B4, the binding result with MBP-FoxP3dN [1] is on record as “binds”.

B5: DNA 4 (Fig S1F) (dsDNA)
DNA 1: AATTTTGTTTATTCGAGTAAACAAATTT
DNA 2: AAATTTGTTTACTCGAATAAACAAAATT
As to B5, the binding result with MBP-FoxP3dN [1] is recorded as “binds”.

B6: DNA1 (NFAT IR-FKHM) (dsDNA)
DNA 1: TTAGGAAAATTTGTTTACTCGAGTAAACAAA
DNA 2: TTTGTTTACTCGAGTAAACAAATTTTCCTAA
On to B6, for which the binding result (in data set [2]; with FoxP3 RBR-FKH;NFAT1 DBD; in the data set with FoxP1 RBR-FKH;NFAT1 DBD; in data set [3]) was “binds” throughout.

B7: Var7 (dsDNA)
DNA 1: TTAGGAAATTTGTGCATTCGAGTAAACAAATTT
DNA 2: AAATTTGTTTACTCGAATGCACAAATTTCCTAA
Regarding B7, in the data set with MBP-FoxP3dN;NFAT1 DBD [4], the binding result is “binds”.

B8: DNA 8 (Fig S1F) (dsDNA)
DNA 1: AATTTGTGTTGTTCGAGTAAACAAATTT
DNA 2: AAATTTGTTTACTCGAACAACACAAATT
As to B8, the binding result with MBP-FoxP3dN [1] was “binds”.

B9: DNA 2 (Fig S1F) (dsDNA)
DNA 1: AATTTTGTTGTGTCGAGTAAACAAATTT
DNA 2: AAATTTGTTTACTCGACACAACAAAATT
Take B9: the binding result with MBP-FoxP3dN [1] is “binds”.

B10: DNA 7 (Fig S1F) (dsDNA)
DNA 1: AATTTGCCGCATTCGAGTAAACAAATTT
DNA 2: AAATTTGTTTACTCGAATGCGGCAAATT
As for B10, the binding result with MBP-FoxP3dN [1] is recorded as “binds”.

B11: IR-FKHM (Fig 1C) (dsDNA)
DNA 1: TAGGAAAATTTGTTTACTCGAGTAAACATC
DNA 2: GATGTTTACTCGAGTAAACAAATTTTCCTA
For the molecule B11, the binding result with MBP-FoxP3dN [5] is “binds”.

B12: DNA 3 (Fig S1F) (dsDNA)
DNA 1: AATTTTGTGCATTCGAGTAAACAAATTT
DNA 2: AAATTTGTTTACTCGAATGCACAAAATT
Regarding B12, in the data set with MBP-FoxP3dN [1], the binding result is given as “binds”.

B13: Var2 (dsDNA)
DNA 1: TTAGGAAATTTGCGCATCTCGAGTAAACAAATTT
DNA 2: AAATTTGTTTACTCGAGATGCGCAAATTTCCTAA
Consider B13, for which, in the data set with MBP-FoxP3dN;NFAT1 DBD [6], the binding result is recorded as “binds”.

B14: DNA 10 (Fig S1F) (dsDNA)
DNA 1: AATTTGTTGCATTCGAGTAAACAAATTT
DNA 2: AAATTTGTTTACTCGAATGCAACAAATT
Regarding B14, the binding result in the data set with MBP-FoxP3dN [1] was “binds”.
